The values that follow are results of earlier work, collected in patent publication US8232251B2, “Compounds for delivery of therapeutic and imaging moieties to nerve cells” (Manzanita Pharmaceuticals, Inc., priority 1998, dated 2012).

As usually defined, the Kd is the free concentration of one partner at which half of the binding sites on the other are occupied at equilibrium, for simple one-to-one binding.

The target in the series is T1, p75 (Homo sapiens, UniProt P08138).
T1 sequence (P08138 29-427): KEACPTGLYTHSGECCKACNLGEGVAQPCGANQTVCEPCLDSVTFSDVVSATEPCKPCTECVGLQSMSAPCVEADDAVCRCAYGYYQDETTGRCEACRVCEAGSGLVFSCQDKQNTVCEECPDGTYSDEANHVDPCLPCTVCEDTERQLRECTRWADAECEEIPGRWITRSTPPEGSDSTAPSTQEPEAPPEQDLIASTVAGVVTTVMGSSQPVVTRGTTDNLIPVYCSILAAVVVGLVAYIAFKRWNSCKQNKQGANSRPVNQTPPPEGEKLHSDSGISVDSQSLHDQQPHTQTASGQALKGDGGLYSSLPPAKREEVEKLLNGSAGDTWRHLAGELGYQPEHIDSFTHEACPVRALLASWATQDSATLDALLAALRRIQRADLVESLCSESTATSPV
As to conditions: lower affinity binding to more abundant p75.

“NGF: nerve growth factor, first identified member of the neurotrophin family; used as binding agent B”: the Kd was 1 nM.
